Reference: US20250136688A1 (Janssen / Centocor, published 2025)

Columns and labels:
Human CD3 epsilon = biological target: T1, Human CD3 epsilon (human, UniProt P07766 23-207); assay: flow cytometry on human PAN-T cells, 60 min at 4 °C
T1 construct: Stood on human T cells (pan-T cells, isolated donor T cells) as part of the TCR/CD3 complex; the other chains of the complex are not written here; also called CD3ε; CD3R
Method: Human PAN-T Cells (Biological Specialty Corporation, Colmar, PA) were thawed and transferred to a 15 mL conical with DPBS. The cells were centrifuged 1300 rpm for 5 minutes. DPBS was aspirated and cells were re-suspended in DPBS. The cells were counted using the Vi-cell XR cell viability analyzer and were plated at 100K/well in 100 uL DPBS. The plate was centrifuged 1200 rpm for 3 minutes and washed 2× with DPBS. Cells were stained with Violet Live/Dead stain (Thermo-Fisher) and incubated at room temperature in the dark for 15 min. The cells were centrifuged and washed 2× with FACS staining buffer (BD Pharmingen).
Cells were washed 2× with FACS staining buffer and re-suspended in 200 μL FACS Buffer. Cells were run on BD Celesta using FACS Diva software and analyzed using FLOWJO.

[1] = biological target: T2, prostate specific membrane antigen (PSMA) (human, UniProt Q04609 1-750); assay: flow cytometry on LNCaP cells, 30 min at 37 °C
T2 construct: whole, on cells
Method: Media was added to neutralize trypsin and the cells were transferred to a 15 mL conical with DPBS. The cells were centrifuged 1300 rpm for 5 minutes. DPBS was aspirated and cells were re-suspended in DPBS. The cells were counted using the Vi-cell XR cell viability analyzer and were plated at 100K/well in 100 μL DPBS. The plate was centrifuged at 1200 rpm for 3 minutes and washed 2× with DPBS. Cells were stained with Violet Live/Dead stain (Thermo-Fisher) and incubated at room temperature in the dark for 15 min. The cells were centrifuged and washed 2× with FACS staining buffer (BD Pharmingen).
Cells were washed 2× with FACS staining buffer and re-suspended in 200 μL FACS Buffer. Cells were run on BD CELESTA using FACS Diva software and analyzed using FLOWJO.

[2] = biological target: T2, prostate specific membrane antigen …; assay: cell-based or functional assay
human claudin 18.2 [3] = biological target: T3, human claudin 18.2 (human, UniProt P56856-2 1-261); assay: flow cytometry on NCI-H146 cells, 1 hr at 37 °C
T3 construct: whole, on cells; also called CLDN18.2
T3 sequence (looked up): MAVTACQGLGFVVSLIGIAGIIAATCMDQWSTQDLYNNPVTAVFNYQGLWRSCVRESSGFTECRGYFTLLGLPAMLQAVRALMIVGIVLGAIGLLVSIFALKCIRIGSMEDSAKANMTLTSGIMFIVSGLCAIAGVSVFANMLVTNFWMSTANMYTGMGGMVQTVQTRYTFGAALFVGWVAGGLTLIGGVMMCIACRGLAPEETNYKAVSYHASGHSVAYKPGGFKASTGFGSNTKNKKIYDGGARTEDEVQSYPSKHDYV
Method: (§1) Cells were thawed in a 37° C. water bath and resuspended in complete assay media before being transferred to culture flasks. The cells used for this experiment were kept in active culture, passaged at least two times, and were >90% viable at assay initiation. The kinetic cell binding assay was initiated by adding 200 μL of cells and 200 μL of antibody into each well of a 2 mL 96-well deep plate and incubated at 37° C. At each time point, a 50 μL aliquot was removed and transferred to a round bottom 96-well plate containing cold FACS buffer. […] The secondary antibody was incubated with cells for 30 min at 4° C. protected from light. After incubation, cells were washed three times with cold FACS buffer and then resuspended in FACS buffer containing 0.1% pluronic acid, 2 mM EDTA, and Sytox Green (diluted 1:1000) to label all dead cells. Staining was immediately analyzed on the Intellicyt iQue3 (Sartorius).

human claudin 18.2 [4] = biological target: T3, human claudin 18.2; assay: flow cytometry on SK-CO-1 cells, 1 hour at 37 °C
Method: Purified CLDN18.2×CD3 antibodies were assessed for their ability to bind to cell lines expressing endogenous CLDN18.2 (SK-CO-1).
SK-CO-1 cells and DMS 454 cells were suspended in 50 ml conical tubes at 20-22 million cells per 50 ml conical tube. […] Cells were incubated for 10 minutes at room temperature protected from light, and centrifuged for 5 minutes at 400×g. The supernatant was removed and the cells were resuspended in HI FBS at ˜1.5×10\hat{ }6 cells/mL to quench the staining reactions. All cells were resuspended in fresh media at ˜1.5×10\hat{ }6 cells/mL. Equal volumes of CFSE stained SK-CO-1 cells, CTV stained DMS 454 cells and unstained SK-CO-1 cells were mixed and 50 μl of mixed cells were plated per well into assay plates (˜25k cells/each cell line; ˜75k/total mixed cells/well). Anti-human transferrin human mAb and human IgG1_AAS isotype (bivalent) were used as positive and negative controls, respectively. 50 μl of CLDN18.2×CD3 titrations at 2× concentration were added in each well containing cells and incubated for one hours at 37° C. 150 μl staining buffer was added to each well after one hour incubation. The plate was spun at 500×g for 5 minutes to pellet the cells. 150 μl staining buffer was added again to each well and the plate was spun at 500×g for 5 minutes to pellet the cells. Supernatant was removed and 50 μl of A647 conjugated anti human IgG Fc specific secondary detection antibody (Jackson ImmunoResearch) was the added at 2 μg/mL in staining buffer to each well. The plates were covered with foil and incubated for 30 minutes on ice. 150 μL of IntelliCyt running buffer was added to the wells, and the plate was spun at 500×g for 5 minutes to pellet cells and the supernatant was removed. Cells were then resuspended in 35 μL running buffer and the plates were run on an iQue Screener (Sartorius).

human claudin 18.2 [5] = biological target: T3, human claudin 18.2; assay: flow cytometry on GSU cells, 1 hr at 37 °C
Method: as §1

human GUCY2C = biological target: T4, human GUCY2C (human, UniProt P25092 24-1073); assay: flow cytometry on CHO-huGUCY2C cells, 60 min at 37 °C
T4 construct: whole, on cells; also called huGUCY2C; guanylate cyclase 2C
Method: (§2) Cells were washed twice again, resuspended and acquired in a flow cytometer. Specific antibody binding was assessed in the RL1H channel for each cell line. Data presented as signal/background where background is secondary only.

cyno GUCY2C = cyno GUCY2C (cynomolgus monkey, UniProt A0A2K5TZ02 16-1015); assay: flow cytometry on CHO-cynoGUCY2C cells, 60 min at 37 °C
Sequence of cyno GUCY2C (A0A2K5TZ02 entry or part of it): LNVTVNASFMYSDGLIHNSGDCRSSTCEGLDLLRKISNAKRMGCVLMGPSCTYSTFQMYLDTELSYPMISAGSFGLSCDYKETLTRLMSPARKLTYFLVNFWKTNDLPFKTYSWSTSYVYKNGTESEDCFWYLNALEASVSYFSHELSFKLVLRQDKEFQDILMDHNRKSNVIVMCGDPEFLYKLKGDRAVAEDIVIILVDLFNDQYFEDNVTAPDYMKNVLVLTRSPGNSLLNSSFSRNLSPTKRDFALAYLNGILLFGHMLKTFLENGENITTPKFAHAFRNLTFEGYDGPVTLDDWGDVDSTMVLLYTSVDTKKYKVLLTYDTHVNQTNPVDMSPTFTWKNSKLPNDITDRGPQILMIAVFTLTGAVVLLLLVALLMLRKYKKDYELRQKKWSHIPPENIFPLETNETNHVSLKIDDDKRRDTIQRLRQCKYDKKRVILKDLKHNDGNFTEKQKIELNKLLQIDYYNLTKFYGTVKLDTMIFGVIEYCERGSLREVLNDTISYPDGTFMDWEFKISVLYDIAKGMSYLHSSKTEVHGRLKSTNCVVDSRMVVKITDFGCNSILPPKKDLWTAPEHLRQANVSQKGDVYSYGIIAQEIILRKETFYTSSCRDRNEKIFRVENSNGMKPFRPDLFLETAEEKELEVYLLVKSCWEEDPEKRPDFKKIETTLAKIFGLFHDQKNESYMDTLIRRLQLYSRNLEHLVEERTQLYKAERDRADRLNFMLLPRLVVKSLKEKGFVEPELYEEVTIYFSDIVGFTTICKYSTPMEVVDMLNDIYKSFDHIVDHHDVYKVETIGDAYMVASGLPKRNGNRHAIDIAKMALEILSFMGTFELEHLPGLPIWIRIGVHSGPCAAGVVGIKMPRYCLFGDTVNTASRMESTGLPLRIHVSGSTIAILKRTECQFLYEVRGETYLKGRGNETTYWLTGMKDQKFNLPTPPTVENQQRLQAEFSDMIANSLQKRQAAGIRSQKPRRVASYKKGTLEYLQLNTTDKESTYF
Method: as §2

T2 sequence (Q04609 whole entry): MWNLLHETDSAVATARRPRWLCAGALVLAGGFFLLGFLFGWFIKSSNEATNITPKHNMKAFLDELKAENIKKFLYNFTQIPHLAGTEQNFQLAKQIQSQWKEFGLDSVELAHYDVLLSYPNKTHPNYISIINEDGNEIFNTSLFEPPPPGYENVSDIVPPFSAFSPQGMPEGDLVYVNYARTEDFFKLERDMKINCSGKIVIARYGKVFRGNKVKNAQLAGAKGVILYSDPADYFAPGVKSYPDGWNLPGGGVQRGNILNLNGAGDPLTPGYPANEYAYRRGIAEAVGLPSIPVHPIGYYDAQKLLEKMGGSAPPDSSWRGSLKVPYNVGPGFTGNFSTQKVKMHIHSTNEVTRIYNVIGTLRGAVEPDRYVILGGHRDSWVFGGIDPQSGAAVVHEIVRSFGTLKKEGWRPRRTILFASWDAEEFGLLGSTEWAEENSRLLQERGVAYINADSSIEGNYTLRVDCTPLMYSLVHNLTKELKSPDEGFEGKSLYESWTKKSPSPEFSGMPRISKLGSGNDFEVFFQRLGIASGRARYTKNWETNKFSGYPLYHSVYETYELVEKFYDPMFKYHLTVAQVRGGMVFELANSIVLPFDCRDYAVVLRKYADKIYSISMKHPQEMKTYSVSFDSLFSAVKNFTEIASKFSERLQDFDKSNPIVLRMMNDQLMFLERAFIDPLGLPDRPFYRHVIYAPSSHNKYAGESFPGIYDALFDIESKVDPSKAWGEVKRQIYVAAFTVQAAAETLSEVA
T4 sequence (P25092 24-1073): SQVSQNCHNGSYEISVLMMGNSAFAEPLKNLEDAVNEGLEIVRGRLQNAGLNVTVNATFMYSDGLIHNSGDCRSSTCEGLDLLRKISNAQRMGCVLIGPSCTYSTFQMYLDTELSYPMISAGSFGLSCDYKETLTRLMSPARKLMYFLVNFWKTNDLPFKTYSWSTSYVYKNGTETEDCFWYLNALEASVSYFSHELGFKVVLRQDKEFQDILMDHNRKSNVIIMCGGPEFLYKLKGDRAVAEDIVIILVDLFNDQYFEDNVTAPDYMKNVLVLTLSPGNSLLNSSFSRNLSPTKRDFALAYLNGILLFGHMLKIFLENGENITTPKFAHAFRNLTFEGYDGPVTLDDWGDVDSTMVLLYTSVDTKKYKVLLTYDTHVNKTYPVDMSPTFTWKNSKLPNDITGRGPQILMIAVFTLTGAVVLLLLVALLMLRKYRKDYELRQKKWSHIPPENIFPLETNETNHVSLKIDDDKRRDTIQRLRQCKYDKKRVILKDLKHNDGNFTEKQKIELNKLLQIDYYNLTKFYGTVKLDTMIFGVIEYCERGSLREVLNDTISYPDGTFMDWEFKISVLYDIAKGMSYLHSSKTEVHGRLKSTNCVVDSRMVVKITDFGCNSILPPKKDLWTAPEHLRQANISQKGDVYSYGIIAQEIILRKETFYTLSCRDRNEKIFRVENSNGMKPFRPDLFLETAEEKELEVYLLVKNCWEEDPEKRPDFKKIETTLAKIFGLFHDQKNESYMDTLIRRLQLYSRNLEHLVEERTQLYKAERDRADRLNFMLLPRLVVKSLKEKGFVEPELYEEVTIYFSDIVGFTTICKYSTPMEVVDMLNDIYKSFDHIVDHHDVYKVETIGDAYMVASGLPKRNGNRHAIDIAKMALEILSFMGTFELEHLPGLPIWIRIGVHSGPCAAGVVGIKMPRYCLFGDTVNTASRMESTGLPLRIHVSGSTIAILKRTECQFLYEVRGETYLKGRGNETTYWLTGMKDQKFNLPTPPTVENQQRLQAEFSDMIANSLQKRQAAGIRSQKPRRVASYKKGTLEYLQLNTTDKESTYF
T1 sequence (P07766 23-207 limits assumed): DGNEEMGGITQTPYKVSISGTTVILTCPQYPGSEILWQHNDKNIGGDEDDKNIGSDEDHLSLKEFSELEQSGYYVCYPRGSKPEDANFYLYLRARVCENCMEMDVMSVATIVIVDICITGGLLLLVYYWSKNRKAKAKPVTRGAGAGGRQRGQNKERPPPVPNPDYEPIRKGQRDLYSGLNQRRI

B1: stapled PSMA×CD3 antibody (PS3B2040) (bispecific antibody, human IgG1, lambda, L234A L235A)
heavy: EVQLVESGGGLVQPGGSLRLSCAASGFTFSSYAMSWVRQAPGKGLEWVSAISGGIGSTYYADSVKGRFTISRDNSKNTLWLQMNSLRAEDTAVYYCAKDAVGATPYYFDYWGQGTLVTVSSASTKGPSVFPLAPSSKSTSGGTAALGCLVKDYFPEPVTVSWNSGALTSGVHTFPAVLQSSGLYSLSSVVTVPSSSLGTQTYICNVNHKPSNTKVDKKVEPKSCDKTHTCPPCPAPEAAGGPSVFLFPPKPKDTLMISRTPEVTCVVVSVSHEDPEVKFNWYVDGVEVHNAKTKPREEQYNSTYRVVSVLTVLHQDWLNGKEYKCKVSNKALPAPIEKTISKAKGQPREPQVYTLPPSREEMTKNQVSLSCAVKGFYPSDIAVEWESNGQPENNYKTTPPVLDSDGSFFLVSKLTVDKSRWQQGNVFSCSVMHEALHNRFTQKSLSLSPGK
light: QSVLTQPPSVSAAPGQKVTISCSGSSSNIGINYVSWYQQLPGTAPKLLIYDNNKRPSGIPDRFSGSKSGTSATLGITGLQTGDEADYYCGTWDSSLSAVVFGGGTKLTVLGQPKAAPSVTLFPPSSEELQANKATLVCLISDFYPGAVTVAWKADSSPVKAGVETTTPSKQSNNKYAASSYLSLTPEQWKSHRSYSCQVTHEGSTVEKTVAPTECS
chain: EIVLTQSPATLSASPGERVTLSCSASSSVSYMNWYQQKPGCAPRRWIYDSSKLASGVPARFSGSGSGRDYTLTISSLEPEDFAVYYCQQWSRNPPTFGGGTKVEIKGGGSGGSGGCPPCGGSGGQVQLVQSGAEVKKPGSSVKVSCKASGYTFTRSTMHWVKQAPGQGLEWIGYINPSSAYTNYNQKFQGRVTLTADKSTSTAYMELSSLRSEDTAVYYCASPQVHYDYAGFPYWGCGTLVTVSSEPKSSDKTHTCPPCPAPEAAGGPSVFLFPPKPKDTLMISRTPEVTCVVVSVSHEDPEVKFNWYVDGVEVHNAKTKPREEQYNSTYRVVSVLTVLHQDWLNGKEYKCKVSNKALPAPIEKTISKAKGQPREPQVYTLPPSREEMTKNQVSLWCLVKGFYPSDIAVEWESNGQPENNYKTTPPVLDSDGSFFLYSKLTVDKSRWQQGNVFSCSVMHEALHNHYTQKSLSLSPGK
notes: HC1/LC1 = anti-PSMA Fab arm (PSMB896-G100A-Fab); HC2 = anti-CD3 spFv-Fc (CD3B2030 N106A, VL-linker-VH); knob-in-hole IgG1; also called stapled PSMA×CD3 bispecific
- binding result (Human CD3 epsilon): binds
- EC50 [1]: 11.6 nM
- cytotoxicity EC50 (% tumor lysis, Incucyte), LNCaP cells with human PBMCs, E:T 3:1 [2]: 0.051 nM
- cytotoxicity EC50 (% tumor lysis, Incucyte), LNCaP cells with human Pan T cells, E:T 3:1 [2]: 0.06 nM

B2: CLDN18.2xCD3 bisp-Ab4 (bispecific antibody)
heavy: EVQLLESGGGLVQPGGSLRLSCAASGFIFSNYYMAWVRLAPGKGLEWVSSISIGGGKSHYADSVKGRFTISRDNSKNTLYLQMNSLRAEDTAVYYCVRHPQLGPNPFDYWGQGTLVTVSSASTKGPSVFPLAPSSKSTSGGTAALGCLVKDYFPEPVTVSWNSGALTSGVHTFPAVLQSSGLYSLSSVVTVPSSSLGTQTYICNVNHKPSNTKVDKKVEPKSCDKTHTCPPCPAPEAAGGPSVFLFPPKPKDTLMISRTPEVTCVVVSVSHEDPEVKFNWYVDGVEVHNAKTKPREEQYNSTYRVVSVLTVLHQDWLNGKEYKCKVSNKALPAPIEKTISKAKGQPREPQVYTLPPSREEMTKNQVSLSCAVKGFYPSDIAVEWESNGQPENNYKTTPPVLDSDGSFFLVSKLTVDKSRWQQGNVFSCSVMHEALHNRFTQKSLSLSPGK
light: DIQMTQSPSSLSASVGDRVTITCRASQSVTISSVDLMNWYQQKPGKAPKLLIYRASNLASGIPSRFSGSGSGTDFTLTISSLQPEDFATYYCQQSRESPYTFGQGTKLEIKRTVAAPSVFIFPPSDEQLKSGTASVVCLLNNFYPREAKVQWKVDNALQSGNSQESVTEQDSKDSTYSLSSTLTLSKADYEKHKVYACEVTHQGLSSPVTKSFNRGEC
chain: EIVLTQSPATLSASPGERVTLSCSASSSVSYMNWYQQKPGCAPRRWIYDSSKLASGVPARFSGSGSGRDYTLTISSLEPEDFAVYYCQQWSRNPPTFGGGTKVEIKGGGSGGSGGCPPCGGSGGQVQLVQSGAEVKKPGSSVKVSCKASGYTFTRSTMHWVKQAPGQGLEWIGYINPSSAYTNYNQKFQGRVTLTADKSTSTAYMELSSLRSEDTAVYYCASPQVHYDYAGFPYWGCGTLVTVSS
notes: The entry for the CD3 arm holds only the spFv; also called CLDN18.2×CD3 bisp-Ab4; not shown: IgG1 hinge-CH2-CH3 with L234A/L235A/D265S and heterodimerization mutations
- EC50 (human claudin 18.2 [3]): 23 nM
- EC50 (human claudin 18.2 [4]): 41.3 nM
- EC50 (human claudin 18.2 [5]): 74 nM

B3: CLDN18.2xCD3 bisp-Ab2 (bispecific antibody)
heavy: EVQLLESGGGLVQPGGSLRLSCAASGFIFSNYYMAWVRLAPGKGLEWVSSISIGGGKSHYADSVKGRFTISRDNSKNTLYLQMNSLRAEDTAVYYCVRHPSLGPNPFDYWGQGTLVTVSSASTKGPSVFPLAPSSKSTSGGTAALGCLVKDYFPEPVTVSWNSGALTSGVHTFPAVLQSSGLYSLSSVVTVPSSSLGTQTYICNVNHKPSNTKVDKKVEPKSCDKTHTCPPCPAPEAAGGPSVFLFPPKPKDTLMISRTPEVTCVVVSVSHEDPEVKFNWYVDGVEVHNAKTKPREEQYNSTYRVVSVLTVLHQDWLNGKEYKCKVSNKALPAPIEKTISKAKGQPREPQVYTLPPSREEMTKNQVSLSCAVKGFYPSDIAVEWESNGQPENNYKTTPPVLDSDGSFFLVSKLTVDKSRWQQGNVFSCSVMHEALHNRFTQKSLSLSPGK
light: DIQMTQSPSSLSASVGDRVTITCRASQSVTISSVDLMNWYQQKPGKAPKLLIYRASNLASGIPSRFSGSGSGTDFTLTISSLQPEDFATYYCQQSRESPYTFGQGTKLEIKRTVAAPSVFIFPPSDEQLKSGTASVVCLLNNFYPREAKVQWKVDNALQSGNSQESVTEQDSKDSTYSLSSTLTLSKADYEKHKVYACEVTHQGLSSPVTKSFNRGEC
chain: EIVLTQSPATLSASPGERVTLSCSASSSVSYMNWYQQKPGCAPRRWIYDSSKLASGVPARFSGSGSGRDYTLTISSLEPEDFAVYYCQQWSRNPPTFGGGTKVEIKGGGSGGSGGCPPCGGSGGQVQLVQSGAEVKKPGSSVKVSCKASGYTFTRSTMHWVKQAPGQGLEWIGYINPSSAYTNYNQKFQGRVTLTADKSTSTAYMELSSLRSEDTAVYYCASPQVHYDYAGFPYWGCGTLVTVSS
notes: The entry for the CD3 arm holds only the spFv; not shown: IgG1 hinge-CH2-CH3 with L234A/L235A/D265S and heterodimerization mutations
- EC50 (human claudin 18.2 [4]): 193 nM

B4: CLDN18.2xCD3 bisp-Ab1 (bispecific antibody)
heavy: EVQLLESGGGLVQPGGSLRLSCAASGFIFSNYYMAWVRLAPGKGLEWVSSISIGGGKSSYADSVKGRFTISRDNSKNTLYLQMNSLRAEDTAVYYCVRHPQLGPNPFDYWGQGTLVTVSSASTKGPSVFPLAPSSKSTSGGTAALGCLVKDYFPEPVTVSWNSGALTSGVHTFPAVLQSSGLYSLSSVVTVPSSSLGTQTYICNVNHKPSNTKVDKKVEPKSCDKTHTCPPCPAPEAAGGPSVFLFPPKPKDTLMISRTPEVTCVVVSVSHEDPEVKFNWYVDGVEVHNAKTKPREEQYNSTYRVVSVLTVLHQDWLNGKEYKCKVSNKALPAPIEKTISKAKGQPREPQVYTLPPSREEMTKNQVSLSCAVKGFYPSDIAVEWESNGQPENNYKTTPPVLDSDGSFFLVSKLTVDKSRWQQGNVFSCSVMHEALHNRFTQKSLSLSPGK
light: DIQMTQSPSSLSASVGDRVTITCRASQSVTISSVDLMNWYQQKPGKAPKLLIYRASNLASGIPSRFSGSGSGTDFTLTISSLQPEDFATYYCQQSRESPYTFGQGTKLEIKRTVAAPSVFIFPPSDEQLKSGTASVVCLLNNFYPREAKVQWKVDNALQSGNSQESVTEQDSKDSTYSLSSTLTLSKADYEKHKVYACEVTHQGLSSPVTKSFNRGEC
chain: EIVLTQSPATLSASPGERVTLSCSASSSVSYMNWYQQKPGCAPRRWIYDSSKLASGVPARFSGSGSGRDYTLTISSLEPEDFAVYYCQQWSRNPPTFGGGTKVEIKGGGSGGSGGCPPCGGSGGQVQLVQSGAEVKKPGSSVKVSCKASGYTFTRSTMHWVKQAPGQGLEWIGYINPSSAYTNYNQKFQGRVTLTADKSTSTAYMELSSLRSEDTAVYYCASPQVHYDYAGFPYWGCGTLVTVSS
notes: not shown: IgG1 hinge-CH2-CH3 with L234A/L235A/D265S and heterodimerization mutations
- EC50 (human claudin 18.2 [4]): 12.7 nM

B5: CLDN18.2xCD3 bisp-Ab3 (bispecific antibody)
heavy: EVQLLESGGGLVQPGGSLRLSCAASGFIFSNYYMAWVRLAPGKGLEWVSSISIGGGKSHYADSVKGRFTISRDNSKNTLYLQMNSLRAEDTAVYYCVRHPQSGPNPFDYWGQGTLVTVSSASTKGPSVFPLAPSSKSTSGGTAALGCLVKDYFPEPVTVSWNSGALTSGVHTFPAVLQSSGLYSLSSVVTVPSSSLGTQTYICNVNHKPSNTKVDKKVEPKSCDKTHTCPPCPAPEAAGGPSVFLFPPKPKDTLMISRTPEVTCVVVSVSHEDPEVKFNWYVDGVEVHNAKTKPREEQYNSTYRVVSVLTVLHQDWLNGKEYKCKVSNKALPAPIEKTISKAKGQPREPQVYTLPPSREEMTKNQVSLSCAVKGFYPSDIAVEWESNGQPENNYKTTPPVLDSDGSFFLVSKLTVDKSRWQQGNVFSCSVMHEALHNRFTQKSLSLSPGK
light: DIQMTQSPSSLSASVGDRVTITCRASQSVTISSVDLMNWYQQKPGKAPKLLIYRASNLASGIPSRFSGSGSGTDFTLTISSLQPEDFATYYCQQSRESPYTFGQGTKLEIKRTVAAPSVFIFPPSDEQLKSGTASVVCLLNNFYPREAKVQWKVDNALQSGNSQESVTEQDSKDSTYSLSSTLTLSKADYEKHKVYACEVTHQGLSSPVTKSFNRGEC
chain: EIVLTQSPATLSASPGERVTLSCSASSSVSYMNWYQQKPGCAPRRWIYDSSKLASGVPARFSGSGSGRDYTLTISSLEPEDFAVYYCQQWSRNPPTFGGGTKVEIKGGGSGGSGGCPPCGGSGGQVQLVQSGAEVKKPGSSVKVSCKASGYTFTRSTMHWVKQAPGQGLEWIGYINPSSAYTNYNQKFQGRVTLTADKSTSTAYMELSSLRSEDTAVYYCASPQVHYDYAGFPYWGCGTLVTVSS
notes: as for B3
- EC50 (human claudin 18.2 [4]): 229 nM

B6: GUCY2C_mAb (antibody, V domains shown)
VH: QVQLQESGPGLVKPSETLSLTCTVSGASISHYYWSWIRRPAGKGLEWIGRIYTSGSTNYNPSLKSRVTVSVDTSKNQFSLKLSSVTAADTAVYYCARDRYTGYFDLWGRGTLVTVSS
VL: not shown
notes: also called GUCYC2_mAb
- EC50 (human GUCY2C): 4.6 nM
- EC50 (cyno GUCY2C): 8.7 nM
